Test results as given in US20160138049A1, “OXYGEN-TOLERANT CoA-ACETYLATING [sequence] DEHYDROGENASE CONTAINING PATHWAY FOR BIOFUEL PRODUCTION” (The Regents of the University of California, priority 2013, published 2016).

B1: L. mon: PduP homologue from Listeria monocytigenes, NP_464690; SEQ ID NO:49 and 50 (protein)
chain: MESLELEKLVKKVLLEKLAEQKGIPVKTMTKGAKSGVFDTVDEAVQAAVIAQNSYKEKSLEERRNVVKAIREALYPEIESIAARAVAETGMGNVADKILKNTLAIEKTPGVEDLYTEVATGDNGMTLYELSPYGVIGAVAPSTNPTETLICNTIGMLAAGNAVFYSPHPGAKNISLWLIEKLNTIVRESCGVDNLVVTVEKPSIQAAQEMMNHPKVPLLVITGGPGVVLQAMQSGKKVIGAGAGNPPSIVDETANIEKAAADIVDGASFDHNILCIAEKSVVAVDSIADFLMFQMEKNGALHVTNPSDIQKLEKVAVTDKGVTNKKLVGKSASEILKEAGIACDFSPRLIIVETEKTHPFATVELLMPIVPVVRVPNFEEALEVAIELEQGLHHTATMHSQNISRLNKAARDMQTSIFVKNGPSFAGLGFRGEGSTTFTIATPTGEGTTTARHFARRRRCVLTDGFSIR
modifications: Listeria monocytogenes
B2: S. ent: CoA-acylating propionaldehyde dehydrogenase (PduP) from Salmonella enterica, AAD39015; SEQ ID NO:33 and 34 (protein, listed as Salmonella enterica)
chain: MNTSELETLIRTILSEQLTTPAQTPVQPQGKGIFQSVSEAIDAAHQAFLRYQQCPLKTRSAIISAMRQELTPLLAPLAEESANETGMGNKEDKFLKNKAALDNTPGVEDLTTTALTGDGGMVLFEYSPFGVIGSVAPSTNPTETIINNSISMLAAGNSIYFSPHPGAKKVSLKLISLIEEIAFRCCGIRNLVVTVAEPTFEATQQMMAHPRIAVLAITGGPGIVAMGMKSGKKVIGAGAGNPPCIVDETADLVKAAEDIINGASFDYNLPCIAEKSLIVVESVAERLVQQMQTFGALLLSPADTDKLRAVCLPEGQANKKLVGKSPSAMLEAAGIAVPAKAPRLLIALVNADDPWVTSEQLMPMLPVVKVSDFDSALALALKVEEGLHHTAIMHSQNVSRLNLAARTLQTSIFVKNGPSYAGIGVGGEGFTTFTIATPTGEGTTSARTFARSRRCVLTNGFSIR
B3: A. hyd: PduP homologue from Aeromonas hydrophila, YP_855873; SEQ ID NO:43 and 44 (protein, listed as Aeromonas hydrophila)
chain: MLSRQNARELVRNAKQAQVIMATFSQQKIDAIVKNVAEEAARHAETLAKMAAEETGFGNWQDKVLKNRFASLHVYDAIKEMKTVGIIHDDQAKKVMDVGVPLGVICALVPSTNPTSTIFYKTLIALKAGNAIIFSPHPGARQCSWKAIEIVKRAAEAAGAPAGIVDGVTQLTLEATSELMHSKDVSLILATGGEGMVRAAYASGTPTISGGPGNGPAFIERSADIHQAVKDIITSKTFDNGVICASEQSIIVERCIYDEVHRELAAQGAYFMNEDEAARMAALLLRPNGTINPKVVGKTALHLSQLAGFSVPPSTRVLVAEQTTVSHSNPYSREKLCPVLGLYVEEEWRAACHRVVELLTNEGLGHTLVIHTRNQDVIRQFSLEKPVNRILINTPAALGGIGATTNLTPALTLGCGAVGGGSSSDNVGPMNLLNIRKVGYGVRTIEELRAPIQPVAVQPASAAPTAPQPCSILDDARFSAPAPACHSADDRFAGASAEVGGEISEQNVERVIRQVLERLGK
B4: P. gin: PduP homologue from Porphyromonas gingivalis, YP_001928839; SEQ ID NO:51 and 52 (protein, listed as Porphyromonas gingivalis)
chain: MEIKEMVSLARKAQKEYQATHNQEAVDNICRAAAKVIYENAAILAREAVDETGMGVYEHKVAKNQGKSKGVWYNLHNKKSVGILNIDERTGMIEIAKPIGVVGAVTPTTNPIVTPMSNIIFALKTCNAIIIAPHPRSKKCSAHAVRLIKEAIAPFNVPEGMVQIIEEPSIEKTQELMGAVDVVVATGGMGMVKSAYSSGKPSFGVGAGNVQVIVDSNIDFEAAAEKIITGRAFDNGIICSGEQSIIYNEADKEAVFTAFRNHGAYFCDEAEGDRARAAIFENGAIAKDVVGQSVAFIAKKANINIPEGTRILVVEARGVGAEDVICKEKMCPVMCALSYKHFEEGVEIARTNLANEGNGHTCAIHSNNQAHIILAGSELTVSRIVVNAPSATTAGGHIQNGLAVTNTLGCGSWGNNSISENFTYKHLLNISRIAPLNSSIHIPDDKEIWEL

How the values were obtained:
[1] = test system: CCCC(=O)SCCNC(=O)CCNC(=O)[C@H](O)C(C)(C)COP(=O)(O)OP(=O)(O)OC[C@H]1O[C@@H](n2cnc3c(N)ncnc32)[C@H](O)[C@@H]1OP(=O)(O)O; assay: purified protein, by the assay type; settings: other: pH 7.15, 30° C., 500 μM NADH, 1 mM DTT, acyl-CoA 0.03 mM to 2 mM
Description: (§5) Enzyme assays were conducted by using Bio-Tek PowerWave XS microplate spectrophotometer. CoA-acylating aldehyde dehydrogenase activity was measured by the decrease of absorbance at 340 nm, corresponding to depletion of NADH. […] The addition of the acyl-CoA initiated the reaction. kcat and Km were determined by nonlinear regression fitting to Michaelis-Menten equation using graphing software Origin.

[2] = test system: CC(=O)SCCNC(=O)CCNC(=O)[C@H](O)C(C)(C)COP(=O)(O)OP(=O)(O)OC[C@H]1O[C@@H](n2cnc3c(N)ncnc32)[C@H](O)[C@@H]1OP(=O)(O)O; assay: purified protein, by the assay type; settings: other: pH 7.15, 30° C., 500 μM NADH, 1 mM DTT, acyl-CoA 0.03 mM to 2 mM
Description: as §5

[3] = molecular target: T1, Lactobacillus brevis PduP, CoA-acylating propionaldehyde dehydrogenase (PduP_L.bre, YP_795711, SEQ ID NO:47 and 48), poly-His6 tagged (Levilactobacillus brevis, UniProt Q03Q42); assay: Kinetic parameters of PduP (CoA-acylating aldehyde dehydrogenase), NADH depletion at 340 nm; format: biochemical
T1 sequence (Q03Q42 1-477): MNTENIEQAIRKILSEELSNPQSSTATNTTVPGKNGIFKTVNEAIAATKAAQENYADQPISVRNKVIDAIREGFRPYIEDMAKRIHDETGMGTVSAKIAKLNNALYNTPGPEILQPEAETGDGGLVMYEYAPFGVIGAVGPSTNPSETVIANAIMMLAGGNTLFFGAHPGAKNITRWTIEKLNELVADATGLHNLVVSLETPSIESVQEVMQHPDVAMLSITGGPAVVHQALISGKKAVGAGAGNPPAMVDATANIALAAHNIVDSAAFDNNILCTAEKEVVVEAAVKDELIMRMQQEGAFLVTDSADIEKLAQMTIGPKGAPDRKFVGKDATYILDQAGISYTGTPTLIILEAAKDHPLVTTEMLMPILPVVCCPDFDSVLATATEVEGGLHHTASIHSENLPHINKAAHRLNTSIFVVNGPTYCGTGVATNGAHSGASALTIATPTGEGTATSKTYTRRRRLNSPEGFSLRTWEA
Description: (§1) Protein purification was done by using His-Spin Protein miniprep purification kit from Zymo following manufacturer's manual. Overnight culture of E. coli strain BL-21(DE3) harboring different pCDF-pdup plasmid was used to inoculate fresh 20 ml LB. The newly inoculated culture was incubated at 37° C. until OD600 nm reaches 0.6 which was then induced with 1 mM IPTG. The induced cultures were then incubated overnight in 30° C. rotary shaker to allow protein expression. The cultures were then harvested by centrifugation at 4,300×g for 20 min. The pellet was then resuspended with 1 mL of Zymo His-binding buffer and mixed with 1 mL of 0.1 mm glass beads (Biospec). The sample was then homogenated using TissueLyser II (Quiagen).
(§2) Enzyme assays were conducted by using Bio-Tek PowerWave XS microplate spectrophotometer. CoA-acylating aldehyde dehydrogenase activity was measured by the decrease of absorbance at 340 nm, corresponding to depletion of NADH. […] For determining specific activity for other chain length acyl-CoA, 500 μM was used. The mixture excluding acyl-CoA was incubated for 5 minutes at 30° C. The addition of the acyl-CoA initiated the reaction. kcat and Km were determined by nonlinear regression fitting to Michaelis-Menten equation using graphing software Origin.
(§3) To characterize these PduP homologues, plasmids harboring individual pduP genes were constructed with a poly-His6 tag (plasmids pCDF-pduP_ahyd, pCDF-pdup_kpne, pCDF-pdup_lbre, pCDF-pdup_lmon, pCDF-pdup_sent, and pCDF-pdup_pgin). PduP homologues were then purified under aerobic condition without cleaving off His tags. The activities of the enzymes were determined using acyl-CoA with different chain lengths, and the disappearance of NADH was monitored.
(§4) The efficiency of these PduP homologues were assessed.

[4] = molecular target: Salmonella enterica PduP, CoA-acylating propionaldehyde dehydrogenase (PduP_S.ent, AAD39015, SEQ ID NO:33 and 34), poly-His6 tagged (Salmonella enterica, UniProt Q9XDN1); assay: as above
Description: as §1, §2, §3, §4

[5] = molecular target: Listeria monocytigenes PduP, CoA-acylating propionaldehyde dehydrogenase (PduP_L.mon, NP_464690, SEQ ID NO:49 and 50), poly-His6 tagged (Listeria monocytogenes, UniProt Q8Y7V4); assay: as above
Description: as §1, §2, §3, §4

[6] = molecular target: Porphyromonas gingivalis PduP, CoA-acylating propionaldehyde dehydrogenase (PduP_P.gin, YP_001928839, SEQ ID NO:51 and 52), poly-His6 tagged (Porphyromonas gingivalis, UniProt B2RIP7); assay: as above
Description: as §1, §2, §3, §4

[7] = molecular target: Klebsiella pneumoniae PduP, CoA-acylating propionaldehyde dehydrogenase (PduP_K.pne, YP_001336844, SEQ ID NO:45 and 46), poly-His6 tagged (Klebsiella pneumoniae, UniProt A0ACD7U6D7); assay: as above
Chain of Klebsiella pneumoniae PduP, CoA-acylating propionaldehyde dehydrogenase (PduP_K.pne, YP_001336844, SEQ ID NO:45 and 46), poly-His6 tagged (A0ACD7U6D7 entry or part of it): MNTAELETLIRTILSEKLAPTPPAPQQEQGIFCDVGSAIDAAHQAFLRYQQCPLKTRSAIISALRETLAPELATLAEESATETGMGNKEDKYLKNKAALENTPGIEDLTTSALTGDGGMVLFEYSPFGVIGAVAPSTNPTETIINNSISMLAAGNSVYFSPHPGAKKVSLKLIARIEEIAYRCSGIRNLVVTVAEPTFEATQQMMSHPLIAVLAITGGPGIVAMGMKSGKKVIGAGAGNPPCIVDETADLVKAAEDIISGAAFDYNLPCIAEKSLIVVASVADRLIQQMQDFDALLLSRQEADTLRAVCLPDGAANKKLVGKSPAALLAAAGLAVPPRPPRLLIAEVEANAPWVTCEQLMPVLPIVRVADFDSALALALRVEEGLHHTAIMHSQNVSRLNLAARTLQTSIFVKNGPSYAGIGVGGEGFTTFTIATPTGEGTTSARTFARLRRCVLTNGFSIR
Description: as §1, §2, §3, §4

[8] = Substrate chain length specificity of PduP; format: biochemical; settings: acyl-CoA chain lengths C2 to C12
Description: FIG. 3A-B Substrate chain length specificity of CoA-acylating aldehyde dehydrogenases, PduP. A) Specific activity of different PduP (pmol min^−1 mg^−1). B) Relative activity of PduP. Specific activity was determined with substrate concentration of 1 mM acyl-CoA, 500 uM NADH, 1 mM DTT in 50 mM potassium phosphate buffer at pH 7.15 at 30° C.
as §2, §3

[9] = CoA-acylating aldehyde dehydrogenase (PduP) assay, butyryl-CoA reduction; format: biochemical; settings: purified under aerobic condition; 500 μM NADH, 1 mM DTT, pH 7.15, 30° C.
Description: as §1, §2, §3, §4

[10] = kcat/Km butyryl-CoA over kcat/Km acetyl-CoA
[11] = pH 7.15, 30° C., 500 μM NADH, 1 mM DTT, acyl-CoA 0.03 mM to 2 mM

Molecule	Km [1]	Km [2]	Acyl-CoA substrate favoured (highest specific activity) [8]	Specific activity for butyryl-CoA reduction [9]	other results
Listeria monocytigenes PduP, CoA-acylating propionaldehyde dehydrogenase (PduP_L.mon, NP_464690, SEQ ID NO:49 and 50), poly-His6 tagged (Listeria monocytogenes EGD-e)	71.7 ± 20.3 µM	92.6 ± 20.1 µM	–	–	–
CCCC(=O)SCCNC(=O)CCNC(=O)[C@H](O)C(C)(C)COP(=O)(O)OP(=O)(O)OC[C@H]1O[C@@H](n2cnc3c(N)ncnc32)[C@H](O)[C@@H]1OP(=O)(O)O [Butyryl-CoA, butyryl-CoA]	–	–	–	–	Ratio C4:C2 (butyryl-CoA to acetyl-CoA catalytic efficiency ratio) [3, 10]: 2; kcat [3, 11]: 3.37 ± 0.19 s⁻¹; Ratio C4:C2 (butyryl-CoA to acetyl-CoA catalytic efficiency ratio) [4, 10]: 6.8; kcat [4, 11]: 25.38 ± 1.81 s⁻¹; Ratio C4:C2 (butyryl-CoA to acetyl-CoA catalytic efficiency ratio) [5, 10]: 1.4; kcat [5, 11]: 11.99 ± 1.56 s⁻¹; Ratio C4:C2 (butyryl-CoA to acetyl-CoA catalytic efficiency ratio) [6, 10]: 0.6; kcat [6, 11]: 0.19 ± 0.02 s⁻¹; Ratio C4:C2 (butyryl-CoA to acetyl-CoA catalytic efficiency ratio) [7, 10]: 5; kcat [7, 11]: 7.02 ± 0.64 s⁻¹
Klebsiella pneumoniae PduP, CoA-acylating propionaldehyde dehydrogenase (PduP_K.pne, YP_001336844, SEQ ID NO:45 and 46), poly-His6 tagged (Klebsiella pneumoniae subsp. pneumoniae NTUH-K2044)	56.0 ± 25.9 µM	181.4 ± 25.1 µM	–	–	–
Porphyromonas gingivalis PduP, CoA-acylating propionaldehyde dehydrogenase (PduP_P.gin, YP_001928839, SEQ ID NO:51 and 52), poly-His6 tagged (Porphyromonas gingivalis ATCC 33277)	256.0 ± 40.5 µM	75.9 ± 25.1 µM	–	–	–
Salmonella enterica PduP, CoA-acylating propionaldehyde dehydrogenase (PduP_S.ent, AAD39015, SEQ ID NO:33 and 34), poly-His6 tagged (Salmonella enterica subsp. enterica serovar Typhimurium str. LT2)	87.0 ± 24.8 µM	342.1 ± 94.8 µM	–	–	–
B1	–	–	highest for propionyl-CoA reduction	17 ± 2 µmol/min/mg	–
B2	–	–	highest for propionyl-CoA reduction	27 ± 14 µmol/min/mg	–
B3	–	–	–	1.7 ± 0.6 µmol/min/mg	–
B4	–	–	dodecanoyl-CoA	0.49 ± 0.2 µmol/min/mg	–
